System: Lrp (C-terminal His6 as stated; cloned NdeI/XhoI in pET28a) (Escherichia coli K-12 (strain FW102 genomic DNA))
Assay: EMSA
Settings: no effector; apparent overall Kd; four complexes B1-B4; 10 mM Tris-HCl pH 7.4, 5 mM MgCl2, 250 mM KCl, 2.5 mM CaCl2, 0.5 mM DTT, 2.5% glycerol, 37 C 25 min; L-Arg and/or L-Leu when indicated; excess sonicated …

**Q.** For artP control region, which Kd is on record?
**A.** 200 nM

— publication PMC6640053
